Results from patent US20120164123.

Target: human neutrophil peptide-1 (HNP-1)
Sequence (chain, as listed by the source): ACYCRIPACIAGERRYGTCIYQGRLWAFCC

B1: arginine-specific mono-ADP-ribosyltransferase-1 (ART1), mART1 released from transfected NMU cells (protein)
chain: QSYSISQLDIFSQETPLDMAPASFDDQYAGCLADMTAALPDLNHSEFQANKVYADGWAQANNQWQERRAWGSVWGSLPPSPPGFRDEHGVALLAYTANSPLHKEFNAAVREAGRSRAHYLHHFSFKTLHFLLTEALQLLRSHRSRGCQQVYRGVHGLRFRPAGPGATVRLGGFASASLKNVAAQQFGEDTFFGIWTCLGAPIRGYSFFPEEEEVLIPPFETFQVINTSRPTQGPARIYLRALGKRSTYNCEYIKEKKCRSGPCWLGSS
  ADP-ribosylation of HNP-1 by ART1 in vitro (RP-HPLC and MS of the reaction products): HNP-1 was ADP-ribosylated in vitro using purified ART1
